According to publication PMC6011876, “Characterization of the ATPase FlaI of the motor complex of the Pyrococcus furiosus archaellum and its interactions between the ATP-binding protein FlaH” (PeerJ, 2018):
Read-outs that look alike come from different tables or passages of the source.

Key:
[1] = target: T1, PfFlaI (Pyrococcus furiosus, UniProt Q8U3X0); assay: fluorescence titration (excitation […] nm, emission […] nm); format: binding; conditions: 5 mM MgCl2, 20 mM Tris HCl pH 8.0, 150 mM NaCl; 20 °C; stoichiometric titration, two sites per hexamer; labelled compound
T1 construct: gene PF0331; full length, His-tagged, overexpressed in E. coli Rosetta (DE3), 64 kDa subunit, nucleotide-free homohexamer
T1 sequence (Q8U3X0 entry or part of it): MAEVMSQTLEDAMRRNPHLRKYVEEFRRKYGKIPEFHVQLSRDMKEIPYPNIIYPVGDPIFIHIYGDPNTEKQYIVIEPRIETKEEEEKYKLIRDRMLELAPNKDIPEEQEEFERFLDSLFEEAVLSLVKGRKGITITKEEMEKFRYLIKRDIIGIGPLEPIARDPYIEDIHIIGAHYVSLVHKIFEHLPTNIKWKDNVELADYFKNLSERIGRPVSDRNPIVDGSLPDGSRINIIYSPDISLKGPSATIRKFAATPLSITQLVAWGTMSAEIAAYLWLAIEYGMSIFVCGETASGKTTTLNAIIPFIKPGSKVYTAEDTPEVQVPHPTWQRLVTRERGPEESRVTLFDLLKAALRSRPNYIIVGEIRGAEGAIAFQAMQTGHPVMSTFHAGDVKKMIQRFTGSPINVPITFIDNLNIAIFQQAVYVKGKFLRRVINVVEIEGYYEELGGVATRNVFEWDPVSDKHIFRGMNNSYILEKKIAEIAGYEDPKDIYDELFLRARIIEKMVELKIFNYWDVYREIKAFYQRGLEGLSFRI

[2] = target: Pyrococcus furiosus FlaI (Pyrococcus furiosus)
[3] = target: Pyrococcus furiosus FlaI (Pyrococcus furiosus); remark: listed apart in the source
[4] = target: T1, PfFlaI; assay: fluorescence competition against bound MANT-ATP; format: binding; conditions: 20 nM PfFlaI, 10 nM MANT-ATP; 5 mM MgCl2, 20 mM Tris HCl pH 8.0, 150 mM NaCl; 20 °C; Hill fit n = 0.67
[5] = target: Pyrococcus furiosus FlaI (Pyrococcus furiosus); assay: SEC; Superdex 200 10/300 GL; 500 µl of protein at 1 mg/ml; 20 mM Tris HCl pH 8.0, 150 mM NaCl; no nucleotide added; fractions on SDS-PAGE
[6] = target: T2, Pyrococcus furiosus FlaH (Pyrococcus furiosus, fluorescently labeled (in the microscale thermophoresis)); assay: MST; 28 nM fluorescently labeled PfFlaH titrated with 1.3 nM-22.5 µM Pf-CTD or 5.6 nM-11.6 µM Pf-NTD; 20 mM Tris HCl pH 8.0, 150 mM NaCl, 0.05% Tween-20; Monolith NT.115 Pico; fitted to the Hill equation
T2 chain: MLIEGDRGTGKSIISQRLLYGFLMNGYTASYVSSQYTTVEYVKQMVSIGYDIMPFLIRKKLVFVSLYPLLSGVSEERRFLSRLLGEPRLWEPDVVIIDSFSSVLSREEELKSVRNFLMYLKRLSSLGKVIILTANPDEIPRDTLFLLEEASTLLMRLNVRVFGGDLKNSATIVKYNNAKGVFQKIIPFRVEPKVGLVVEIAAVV

Molecule: CNc1ccccc1C(=O)O[C@H]1[C@@H](O)[C@H](n2cnc3c(N)ncnc32)O[C@@H]1COP(=O)(O)OP(=O)(O)OP(=O)(O)O (mixture of isomers) [MANT-ATP, 2′-/3′-O-(N-methylanthraniloyl) adenosine 5′-triphosphate]
- fluorescence titration (excitation 285 nm, emission 450 nm) [1]: only two of the ATP binding sites in the hexamer are available for binding of MANT-ATP

Molecule: Pyrococcus furiosus FlaH (natural protein)
- ATPase activity at 70 °C of 1 µM PfFlaI with increasing concentrations of PfFlaH; ratio at maximal stimulation (PfFlaH per PfFlaI) [2]: 1
- ATPase activity of PfFlaI at 70 °C (malachite green) on addition of PfFlaH, proteins at 1 µM [3]: 2 fold

Molecule: Nc1ncnc2c1ncn2[C@@H]1O[C@H](COP(=O)(O)OP(=O)(O)OP(=O)(O)O)[C@@H](O)[C@H]1O [ATP]
- IC50 [4]: 260 nM

Molecule: Pyrococcus furiosus FlaI (enzyme)
- stoichiometry N [5]: 6

Molecule: N-terminal domain of Pyrococcus furiosus FlaI (domain or fragment)
- Kd [6]: > 8000 nM

B1: C-terminal domain of Pyrococcus furiosus FlaI (domain or fragment)
chain: LSITQLVAWGTMSAEIAAYLWLAIEYGMSIFVCGETASGKTTTLNAIIPFIKPGSKVYTAEDTPEVQVPHPTWQRLVTRERGPEESRVTLFDLLKAALRSRPNYIIVGEIRGAEGAIAFQAMQTGHPVMSTFHAGDVKKMIQRFTGSPINVPITFIDNLNIAIFQQAVYVKGKFLRRVINVVEIEGYYEELGGVATRNVFEWDPVSDKHIFRGMNNSYILEKKIAEIAGYEDPKDIYDELFLRARIIEKMVELKIFNYWDVYREIKAFYQRGLEGLSFRI
- Kd ([6]; both partners purified): 100 nM
